Assay results taken from patent publication US20070160576A1, “IL-17A/F heterologous polypeptides and therapeutic uses thereof” (Genentech, Inc., priority 2001, published 2007).

T1: IL-17RH1 (PRO5801) extracellular domain, purified, monomeric (human, UniProt Q9NRM6 18-292)
T1 construct: extracellular domain
T1 sequence (looked up): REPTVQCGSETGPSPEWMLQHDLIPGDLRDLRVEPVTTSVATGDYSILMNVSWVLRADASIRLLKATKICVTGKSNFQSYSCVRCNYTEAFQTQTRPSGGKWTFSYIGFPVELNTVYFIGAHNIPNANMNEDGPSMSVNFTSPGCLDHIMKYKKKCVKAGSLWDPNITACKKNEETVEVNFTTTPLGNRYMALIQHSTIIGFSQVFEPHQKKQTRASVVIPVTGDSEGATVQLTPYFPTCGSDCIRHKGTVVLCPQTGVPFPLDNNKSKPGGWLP

T2: IL-17RH1 (Homo sapiens, UniProt Q9NRM6)
T2 construct: the extracellular domains (ECDs) of either of the two receptors IL-17R (designated PRO1) and IL-17RH1 (PRO5801)
T2 sequence (Q9NRM6 18-292 limits assumed): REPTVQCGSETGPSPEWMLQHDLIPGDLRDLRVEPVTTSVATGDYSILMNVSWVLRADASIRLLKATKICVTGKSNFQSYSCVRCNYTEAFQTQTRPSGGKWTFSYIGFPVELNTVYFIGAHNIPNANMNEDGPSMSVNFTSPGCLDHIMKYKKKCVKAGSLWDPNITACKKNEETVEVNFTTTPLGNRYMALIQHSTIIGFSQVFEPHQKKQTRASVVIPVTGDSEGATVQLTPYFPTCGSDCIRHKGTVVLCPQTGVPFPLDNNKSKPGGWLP

T3: PRO5801 (human IL-17RH1 receptor) (Homo sapiens, UniProt Q9NRM6)
T3 sequence (Q9NRM6 18-502): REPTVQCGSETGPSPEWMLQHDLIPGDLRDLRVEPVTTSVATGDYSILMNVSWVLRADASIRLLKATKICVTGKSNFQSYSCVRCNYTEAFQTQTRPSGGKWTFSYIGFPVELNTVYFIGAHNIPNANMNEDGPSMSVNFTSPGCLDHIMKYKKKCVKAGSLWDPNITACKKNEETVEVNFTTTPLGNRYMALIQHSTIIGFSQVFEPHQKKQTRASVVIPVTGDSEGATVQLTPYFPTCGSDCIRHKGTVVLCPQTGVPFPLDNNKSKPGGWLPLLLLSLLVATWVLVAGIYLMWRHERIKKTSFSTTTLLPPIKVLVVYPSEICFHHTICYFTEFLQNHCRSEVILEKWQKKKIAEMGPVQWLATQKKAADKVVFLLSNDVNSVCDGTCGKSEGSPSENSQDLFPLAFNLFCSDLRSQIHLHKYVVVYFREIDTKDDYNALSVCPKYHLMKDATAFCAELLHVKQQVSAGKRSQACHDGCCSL

T4: IL-17RH1 (PRO5801) (Homo sapiens, UniProt Q9NRM6)
T4 construct: the extracellular domains (ECDs) of either of the two receptors IL-17R (designated PRO1) and IL-17RH1 (PRO5801)
T4 sequence (Q9NRM6 18-292 limits assumed): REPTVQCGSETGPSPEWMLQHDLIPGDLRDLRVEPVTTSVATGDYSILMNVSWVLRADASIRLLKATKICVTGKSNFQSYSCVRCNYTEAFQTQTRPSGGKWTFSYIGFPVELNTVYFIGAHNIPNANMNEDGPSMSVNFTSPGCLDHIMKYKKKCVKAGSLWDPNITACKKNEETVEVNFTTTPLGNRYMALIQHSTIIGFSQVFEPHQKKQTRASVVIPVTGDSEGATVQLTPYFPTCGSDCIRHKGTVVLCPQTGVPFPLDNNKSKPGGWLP


Assays:
[1] = target: T1, IL-17RH1 (PRO5801) extracellular …; assay: SPR (BIAcore 1000), IL-17RH1 immobilized, 1:1 model
[2] = target: T1, IL-17RH1 (PRO5801) extracellular …; assay: SPR (BIAcore 1000), IL-17E immobilized, 1:1 model
Protocol: (§1) Sensorgrams-were obtained for a series of six, two-fold serially diluted protein solutions. The highest concentration used was 1000 or 500 nM protein and the solutions were prepared in the running buffer, PBS containing 0.05% Tween-20. The sensor chip surface was regenerated between binding cycles by injection of a 25 ┘L aliquot of 0.1 M acetic acid, 0.2 M NaCl, pH 3 to elute non-covalent bound protein. Sensorgrams were evaluated according to a 1:1 binding model by non-linear regression analysis using software supplied by the manufacturer. […] The amount of bound receptor was determined from the resonance signal obtained after completion of the association phase.

[3] = target: T5, IL-17R (PRO1) extracellular domain, purified, monomeric (human, UniProt Q96F46 33-320); assay: SPR (BIAcore)
T5 construct: extracellular domain; also called human IL-17 receptor
Protocol: as §1

IL-17RH1 = target: T2, IL-17RH1; assay: SPR competition for receptor binding to immobilized IL-17E; conditions: IL-17RH1 31 nM; IL-17F at 1.3 ┘M
Protocol: The kinetics and affinity of IL-17, IL-17E (PRO10272), or IL-17F (PRO20110) binding to IL-17R or IL-17RH1 (PRO5801) were determined by SPR measurements on a Pharmacia BIAcore 1000 instrument (Phamacia Biosensor, Piscataway N.J.). IL-17 ligand or receptor was immobilized onto a flow cell of a CM5 sensor chip via random coupling to amino groups, N-hydroxysuccinimide chemistry, by using a protocol developed by the manufacturer. An immobilization level of about 500 resonance units (RU) was obtained for IL-17R, IL-17RH1, and IL-17F, whereas IL-17 and IL-17E immobilization levels were 1200 and 1500 RU, respectively. A strong signal was obtained for IL-17R binding to immobilized IL-17. […] After blocking unreacted sites with ethanolamine, binding measurements were performed using a flow rate of 25 ┘L/min. Sensorgrams-were obtained for a series of six, two-fold serially diluted protein solutions. The highest concentration used was 1000 or 500 nM protein and the solutions were prepared in the running buffer, PBS containing 0.05% Tween-20. […] Sensorgrams were evaluated according to a 1:1 binding model by non-linear regression analysis using software supplied by the manufacturer. […] The amount of bound receptor was determined from the resonance signal obtained after completion of the association phase. […]

[4] = target: T3, PRO5801 (human IL-17RH1 receptor); assay: Receptor/ligand interaction screening assay (immunoadhesin); format: binding
Protocol: In general, the assay is performed as follows. A PRO polypeptide of the present invention suspected of being a ligand for a receptor is expressed as a fusion protein containing the Fc domain of human IgG (an immunoadhesin). Receptor-ligand binding is detected by allowing interaction of the immunoadhesin polypeptide with cells (e.g. Cos cells) expressing candidate PRO polypeptide receptors and visualization of bound immunoadhesin with fluorescent reagents directed toward the Fc fusion domain and examination by microscope. Cells expressing candidate receptors are produced by transient transfection, in parallel, of defined subsets of a library of cDNA expression vectors encoding PRO polypeptides that may function as receptor molecules. Cells are then incubated for 1 hour in the presence of the PRO polypeptide immunoadhesin being tested for possible receptor binding. The cells are then washed and fixed with paraformaldehyde. The cells are then incubated with fluorescent conjugated antibody directed against the Fc portion of the PRO polypeptide immunoadhesin (e.g. FITC conjugated goat anti-human-Fc antibody). The cells are then washed again and examined by microscope. A positive interaction is judged by the presence of fluorescent labeling of cells transfected with cDNA encoding a particular PRO polypeptide receptor or pool of receptors and an absence of similar fluorescent labeling of similarly prepared cells that have been transfected with other cDNA or pools of cDNA. If a defined pool of cDNA expression vectors is judged to be positive for interaction with a PRO polypeptide immunoadhesin, the individual cDNA species that comprise the pool are tested individually (the pool is “broken down”) to determine the specific cDNA that encodes a receptor able to interact with the PRO polypeptide immunoadhesin.
In another embodiment of this assay, an epitope-tagged potential ligand PRO polypeptide (e.g., 8 histidine “His” tag) is allowed to interact with a panel of potential receptor PRO polypeptide molecules that have been expressed as fusions with the Fc domain of human IgG (immunoadhesins). Following a 1 hour co-incubation with the epitope tagged PRO polypeptide, the candidate receptors are each immunoprecipitated with protein A beads and the beads are washed. Potential ligand interaction is determined by Western blot analysis of the immunoprecipitated complexes with antibody directed towards the epitope tag. An interaction is judged to occur if a band of the anticipated molecular weight of the epitope tagged protein is observed in the Western blot analysis with a candidate receptor, but is not observed to occur with the other members of the panel of potential receptors.

IL-17RH1 (PRO5801) = target: T4, IL-17RH1 (PRO5801); assay: SPR (BIAcore) binding measurements; conditions: for Koff × 10^4: value is Koff × 10^4; for Kon × 10^−5: value is Kon × 10^−5
Protocol: (§2) The kinetics and affinity of IL-17, IL-17E (PRO10272), or IL-17F (PRO20110) binding to IL-17R or IL-17RH1 (PRO5801) were determined by SPR measurements on a Pharmacia BIAcore 1000 instrument (Phamacia Biosensor, Piscataway N.J.). IL-17 ligand or receptor was immobilized onto a flow cell of a CM5 sensor chip via random coupling to amino groups, N-hydroxysuccinimide chemistry, by using a protocol developed by the manufacturer. An immobilization level of about 500 resonance units (RU) was obtained for IL-17R, IL-17RH1, and IL-17F, whereas IL-17 and IL-17E immobilization levels were 1200 and 1500 RU, respectively. A strong signal was obtained for IL-17R binding to immobilized IL-17. […] After blocking unreacted sites with ethanolamine, binding measurements were performed using a flow rate of 25 ┘L/min. Sensorgrams-were obtained for a series of six, two-fold serially diluted protein solutions. The highest concentration used was 1000 or 500 nM protein and the solutions were prepared in the running buffer, PBS containing 0.05% Tween-20. The sensor chip surface was regenerated between binding cycles by injection of a 25 ┘L aliquot of 0.1 M acetic acid, 0.2 M NaCl, pH 3 to elute non-covalent bound protein. Sensorgrams were evaluated according to a 1:1 binding model by non-linear regression analysis using software supplied by the manufacturer. In separate experiments to measure competition between IL-17 variants for binding receptors, a fixed concentration of receptor was incubated with a varied concentration of IL-17 protein followed by injection of this mixture onto a flow cell having immobilized IL-17 protein. The amount of bound receptor was determined from the resonance signal obtained after completion of the association phase.

IL-17R = target: T6, IL-17R (Homo sapiens, UniProt Q96F46); assay: SPR (BIAcore) binding measurements; conditions: IL-17R in solution, cytokine immobilized
T6 construct: the extracellular domains (ECDs) of either of the two receptors IL-17R (designated PRO1) and IL-17RH1 (PRO5801)
Protocol: as §2

[5] = target: T1, IL-17RH1 (PRO5801) extracellular …; assay: SPR (BIAcore), IL-17F immobilized
Protocol: as §1

[6] = target: T7, IL-17R on transfected Cos cells (human, UniProt Q96F46 33-866); assay: binding to transfected Cos cells; data not shown
T7 construct: whole, on cells; also called Cos cells transfected with IL-17R

[7] = immobilized IL-17E, ligand IL-17RH1
[8] = immobilized IL-17RH1, ligand IL-17E

Molecule | Kd [1] [nM] | koff [1] [s⁻¹] | kon [1] [M⁻¹ s⁻¹] | Kd [2] [nM] | koff [2] [s⁻¹] | kon [2] [M⁻¹ s⁻¹] | binding result [3] | competition for binding of IL-17RH1 to immobilized IL-17E (IL-17RH1) | binding to IL-17RH1 receptor (PRO5801) [4] | SPR binding to IL-17RH1 (in words) (IL-17RH1 (PRO5801)) | Koff × 10^4 (IL-17RH1 (PRO5801); [7]) [s^−1] | Kon × 10^−5 (IL-17RH1 (PRO5801); [7]) [M^−1 s^−1] | Koff × 10^4 (IL-17RH1 (PRO5801); [8]) [s^−1] | Kon × 10^−5 (IL-17RH1 (PRO5801); [8]) [M^−1 s^−1] | SPR binding to IL-17R (in words) (IL-17R) | binding result [5] | binding result [6]
human IL-17E (PRO10272), protein used in SPR (ligand, UniProt Q9H293 33-177, looked up, construct not described) YSHWPSCCPSKGQDTSEELLRWSTVPVPPLEPARPNRHPESCRASEDGPLNSRAISPWRYELDRDLNRLPQDLYHARCLCPHCVSLQTGSHMDPRGNSELLYHNQTVFYRRPCHGEKGTHKGYCLERRLYRVSLACVCVRPRVMG | 1.4 | 0.00062 | 430000 | 1.1 | 0.0007 | 670000 | no binding | completely inhibited | binds to | high affinity binding | 7.0 | 6.7 | 6.2 | 4.3 | no binding was observed |  | 
human IL-17F (PRO20110) (ligand, disulfide-linked homodimer, glycosylated at Asn 53) RKIPKVGHTFFQKPESCPPVPGGSMKLDIGIINENQRVSMSRNIESRSTSPWNYTVTWDPNRYPSEVVQAQCRNLGCINAQGKEDISMNSVPIQQETLVVRRKHQGCSVSFQLEKVLVTVGCTCVTPVIHHVQ |  |  |  |  |  |  |  |  |  |  |  |  |  |  |  | no binding (tested: up to 0.5 µM (printed 0.5 ┘M)) | binds
